Data on nine molecules can be found in patent US20210196796A1 (SYNTHEKINE, published 2021).

T1: orthogonal hCD122 receptor (hoRb), hCD122 with H133D and Y134F (human, UniProt P14784 27-550)
T1 sequence: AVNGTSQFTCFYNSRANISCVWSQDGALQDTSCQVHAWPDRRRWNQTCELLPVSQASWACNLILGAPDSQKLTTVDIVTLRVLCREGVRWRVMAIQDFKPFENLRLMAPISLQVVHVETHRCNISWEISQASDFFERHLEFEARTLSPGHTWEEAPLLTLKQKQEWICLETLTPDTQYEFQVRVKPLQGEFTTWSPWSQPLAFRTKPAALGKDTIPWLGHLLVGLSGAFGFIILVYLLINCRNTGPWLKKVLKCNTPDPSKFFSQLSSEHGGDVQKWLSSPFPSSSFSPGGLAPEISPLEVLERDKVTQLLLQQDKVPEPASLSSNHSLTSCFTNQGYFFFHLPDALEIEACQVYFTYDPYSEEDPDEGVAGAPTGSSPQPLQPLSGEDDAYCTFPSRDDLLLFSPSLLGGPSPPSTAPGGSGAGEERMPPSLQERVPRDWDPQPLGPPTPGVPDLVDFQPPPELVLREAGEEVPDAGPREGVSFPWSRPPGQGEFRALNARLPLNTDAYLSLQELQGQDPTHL

B1: ΔH16, S_VLKA (ligand)
chain: APTSSSTKKTQLQLSLLVLLKAILNGINNYKNPKLTRMLTFKFYMPKKATELKHLQCLEEELKPLEEVLNLAQSKNFHLRPRDLISNINVIVLELKGSETTFMCEYADETATIVEFLNRWITFCQSIISTLT
B2: KQVLKA (ligand)
chain: APTSSSTKKTQLQLKQLLVLLKAILNGINNYKNPKLTRMLTFKFYMPKKATELKHLQCLEEELKPLEEVLNLAQSKNFHLRPRDLISNINVIVLELKGSETTFMCEYADETATIVEFLNRWITFCQSIISTLT
B3: L18G, SQVLKA (ligand)
chain: B2 chain with K15S, L18G
B4: L18E, SQVLKA (ligand)
chain: B2 chain with K15S, L18E
B5: L18F, SQVLKA (ligand)
chain: B2 chain with K15S, L18F
B6: TQVLKA (ligand)
chain: B2 chain with K15T
B7: L18M, SQVLKA (ligand)
chain: B2 chain with K15S, L18M
B8: SNVLKA (ligand)
chain: B2 chain with K15S, Q16N
B9: T3C, SQVLKA (ligand)
chain: B2 chain with T3C, K15S

Positions count from the first letter of the chain named. Names and notes keep the numbering of the source.
Wherever Relative Proliferation Fold Change 3F8 1:10 is given: reference of the scale not given here.
Wherever Relative Proliferation Fold Change 3F8 1:2 is given: reference of the scale not given here.
Wherever Relative Proliferation Fold Change 3F8 1:50 is given: reference of the scale not given here.
Wherever Relative Proliferation Fold Change NKL 1:10 is given: reference of the scale not given here.
Wherever Relative Proliferation Fold Change NKL 1:2 is given: reference of the scale not given here.
Wherever Relative Proliferation Fold Change NKL 1:50 is given: reference of the scale not given here.

One experiment concerns the target T1, orthogonal hCD122 receptor (hoRb), …. Nature of the experiment: cell-based or functional assay.
As for B1, the “3F8 Ortho Proliferation Signal 1:2” value worked out at 2360 cts/min, the “3F8 Ortho Proliferation Signal 1:10” value is 4420 cts/min, the “3F8 Ortho Proliferation Signal 1:50” value worked out at 1670 cts/min and the “Relative Proliferation Fold Change 3F8 1:2” value stood at 3.49 fold. The “Relative Proliferation Fold Change 3F8 1:10” value came to 1.68 fold and the “Relative Proliferation Fold Change 3F8 1:50” value was 1.33 fold.
For B2, the “3F8 Ortho Proliferation Signal 1:2” value was determined as 35200 cts/min, the “3F8 Ortho Proliferation Signal 1:10” value turned out to be 36800 cts/min, the “3F8 Ortho Proliferation Signal 1:50” value worked out at 24000 cts/min and the “Relative Proliferation Fold Change 3F8 1:2” value was found to be 4.86 fold. Also, the “Relative Proliferation Fold Change 3F8 1:10” value was 3.88 fold and the “Relative Proliferation Fold Change 3F8 1:50” value came to 23 fold.
With B3, the “3F8 Ortho Proliferation Signal 1:2” value was 37700 cts/min, the “3F8 Ortho Proliferation Signal 1:10” value stood at 25900 cts/min, the “3F8 Ortho Proliferation Signal 1:50” value came to 9750 cts/min and the “Relative Proliferation Fold Change 3F8 1:2” value was 52.9 fold. In addition, the “Relative Proliferation Fold Change 3F8 1:10” value turned out to be 17 fold and the “Relative Proliferation Fold Change 3F8 1:50” value was found to be 3.79 fold.
For B4, the “3F8 Ortho Proliferation Signal 1:2” value came out at 6090 cts/min, the “3F8 Ortho Proliferation Signal 1:10” value stood at 2350 cts/min, the “3F8 Ortho Proliferation Signal 1:50” value came out at 1980 cts/min and the “Relative Proliferation Fold Change 3F8 1:2” value stood at 9.99 fold. Moreover, the “Relative Proliferation Fold Change 3F8 1:10” value came out at 0.93 fold and the “Relative Proliferation Fold Change 3F8 1:50” value was determined as 0.77 fold.
Regarding B5, the “3F8 Ortho Proliferation Signal 1:2” value came to 49800 cts/min, the “3F8 Ortho Proliferation Signal 1:10” value turned out to be 40800 cts/min, the “3F8 Ortho Proliferation Signal 1:50” value was determined as 30000 cts/min and the “Relative Proliferation Fold Change 3F8 1:2” value was found to be 54.8 fold. The “Relative Proliferation Fold Change 3F8 1:10” value worked out at 16.8 fold and the “Relative Proliferation Fold Change 3F8 1:50” value worked out at 11.8 fold.
B6: the “3F8 Ortho Proliferation Signal 1:2” value amounted to 29100 cts/min, the “3F8 Ortho Proliferation Signal 1:10” value worked out at 35900 cts/min, the “3F8 Ortho Proliferation Signal 1:50” value worked out at 17000 cts/min and the “Relative Proliferation Fold Change 3F8 1:2” value stood at 2.6 fold. Also, the “Relative Proliferation Fold Change 3F8 1:10” value amounted to 16 fold and the “Relative Proliferation Fold Change 3F8 1:50” value was determined as 8.69 fold.
For the molecule B7, the “3F8 Ortho Proliferation Signal 1:2” value was determined as 42000 cts/min, the “3F8 Ortho Proliferation Signal 1:10” value is 48500 cts/min, the “3F8 Ortho Proliferation Signal 1:50” value worked out at 37200 cts/min and the “Relative Proliferation Fold Change 3F8 1:2” value came to 55 fold. The “Relative Proliferation Fold Change 3F8 1:10” value is 21.9 fold and the “Relative Proliferation Fold Change 3F8 1:50” value was 16.6 fold.
B8: the “3F8 Ortho Proliferation Signal 1:2” value came out at 31400 cts/min, the “3F8 Ortho Proliferation Signal 1:10” value amounted to 32700 cts/min, the “3F8 Ortho Proliferation Signal 1:50” value is 19000 cts/min and the “Relative Proliferation Fold Change 3F8 1:2” value was found to be 9.2 fold. Besides, the “Relative Proliferation Fold Change 3F8 1:10” value is 11.8 fold and the “Relative Proliferation Fold Change 3F8 1:50” value is 4.79 fold.
For the molecule B9, the “3F8 Ortho Proliferation Signal 1:2” value was found to be 33100 cts/min, the “3F8 Ortho Proliferation Signal 1:10” value is 33700 cts/min, the “3F8 Ortho Proliferation Signal 1:50” value came out at 14600 cts/min and the “Relative Proliferation Fold Change 3F8 1:2” value came out at 34.9 fold. Also, the “Relative Proliferation Fold Change 3F8 1:10” value amounted to 12.8 fold and the “Relative Proliferation Fold Change 3F8 1:50” value stood at 12 fold.

The target is the same in the next experiment. Nature of the experiment: cell-based or functional assay. The source holds these as a separate data set.
B1: the “NKL Ortho Proliferation Signal 1:2” value stood at 20900, the “NKL Ortho Proliferation Signal 1:10” value is 14200, the “NKL Ortho Proliferation Signal 1:50” value was 9760 and the “Relative Proliferation Fold Change NKL 1:2” value was determined as 1.32 fold. The “Relative Proliferation Fold Change NKL 1:10” value came to 0.84 fold and the “Relative Proliferation Fold Change NKL 1:50” value is 0.62 fold.
With B2, the “NKL Ortho Proliferation Signal 1:2” value stood at 71200, the “NKL Ortho Proliferation Signal 1:10” value is 67600, the “NKL Ortho Proliferation Signal 1:50” value came to 38900 and the “Relative Proliferation Fold Change NKL 1:2” value was found to be 5.12 fold. Also, the “Relative Proliferation Fold Change NKL 1:10” value worked out at 4.36 fold and the “Relative Proliferation Fold Change NKL 1:50” value turned out to be 2.63 fold.
Turning to B3, the “NKL Ortho Proliferation Signal 1:2” value was 15400, the “NKL Ortho Proliferation Signal 1:10” value amounted to 13400, the “NKL Ortho Proliferation Signal 1:50” value turned out to be 8640 and the “Relative Proliferation Fold Change NKL 1:2” value worked out at 1.05 fold. In addition, the “Relative Proliferation Fold Change NKL 1:10” value turned out to be 0.83 fold and the “Relative Proliferation Fold Change NKL 1:50” value came to 0.57 fold.
Take B4: the “NKL Ortho Proliferation Signal 1:2” value was 8260, the “NKL Ortho Proliferation Signal 1:10” value came to 9060, the “NKL Ortho Proliferation Signal 1:50” value was determined as 8120 and the “Relative Proliferation Fold Change NKL 1:2” value stood at 0.57 fold. For the same molecule, the “Relative Proliferation Fold Change NKL 1:10” value was 0.56 fold and the “Relative Proliferation Fold Change NKL 1:50” value was determined as 0.51 fold.
In the case of B5, the “NKL Ortho Proliferation Signal 1:2” value is 48600, the “NKL Ortho Proliferation Signal 1:10” value was 39400, the “NKL Ortho Proliferation Signal 1:50” value turned out to be 19400 and the “Relative Proliferation Fold Change NKL 1:2” value amounted to 3.85 fold. The “Relative Proliferation Fold Change NKL 1:10” value was determined as 2.52 fold and the “Relative Proliferation Fold Change NKL 1:50” value stood at 1.3 fold.
For the molecule B6, the “NKL Ortho Proliferation Signal 1:2” value was determined as 50400, the “NKL Ortho Proliferation Signal 1:10” value came out at 57900, the “NKL Ortho Proliferation Signal 1:50” value was 27800 and the “Relative Proliferation Fold Change NKL 1:2” value is 3.46 fold. Further, the “Relative Proliferation Fold Change NKL 1:10” value was determined as 3.31 fold and the “Relative Proliferation Fold Change NKL 1:50” value worked out at 1.75 fold.
Turning to B7, the “NKL Ortho Proliferation Signal 1:2” value stood at 42700, the “NKL Ortho Proliferation Signal 1:10” value worked out at 43900, the “NKL Ortho Proliferation Signal 1:50” value was determined as 22100 and the “Relative Proliferation Fold Change NKL 1:2” value was found to be 3.7 fold. Moreover, the “Relative Proliferation Fold Change NKL 1:10” value is 2.72 fold and the “Relative Proliferation Fold Change NKL 1:50” value is 1.55 fold.
For B8, the “NKL Ortho Proliferation Signal 1:2” value came out at 46800, the “NKL Ortho Proliferation Signal 1:10” value amounted to 39700, the “NKL Ortho Proliferation Signal 1:50” value was 18300 and the “Relative Proliferation Fold Change NKL 1:2” value turned out to be 2.94 fold. For the same molecule, the “Relative Proliferation Fold Change NKL 1:10” value was 2.19 fold and the “Relative Proliferation Fold Change NKL 1:50” value is 1.09 fold.
Regarding B9, the “NKL Ortho Proliferation Signal 1:2” value turned out to be 60600, the “NKL Ortho Proliferation Signal 1:10” value is 70800, the “NKL Ortho Proliferation Signal 1:50” value came out at 35300 and the “Relative Proliferation Fold Change NKL 1:2” value came out at 4.54 fold. Besides, the “Relative Proliferation Fold Change NKL 1:10” value is 4.16 fold and the “Relative Proliferation Fold Change NKL 1:50” value worked out at 2.06 fold.
